Test results reported in patent publication US20220332804A1 (CSL INNOVATION, published 2022).

Columns and labels:
Assay in all cases: SPR; KD relative to WT C2;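 note: biacore SPR at 37 °C, anti-C2 mAbs captured on an anti-human IgG chip, alanine or serine C2 surface mutants tested, KD from 1:1 fit compared with wild-type C2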
human C2 I272A = molecular target: T1, human C2 I272A (human, UniProt P06681 21-752)
T1 sequence: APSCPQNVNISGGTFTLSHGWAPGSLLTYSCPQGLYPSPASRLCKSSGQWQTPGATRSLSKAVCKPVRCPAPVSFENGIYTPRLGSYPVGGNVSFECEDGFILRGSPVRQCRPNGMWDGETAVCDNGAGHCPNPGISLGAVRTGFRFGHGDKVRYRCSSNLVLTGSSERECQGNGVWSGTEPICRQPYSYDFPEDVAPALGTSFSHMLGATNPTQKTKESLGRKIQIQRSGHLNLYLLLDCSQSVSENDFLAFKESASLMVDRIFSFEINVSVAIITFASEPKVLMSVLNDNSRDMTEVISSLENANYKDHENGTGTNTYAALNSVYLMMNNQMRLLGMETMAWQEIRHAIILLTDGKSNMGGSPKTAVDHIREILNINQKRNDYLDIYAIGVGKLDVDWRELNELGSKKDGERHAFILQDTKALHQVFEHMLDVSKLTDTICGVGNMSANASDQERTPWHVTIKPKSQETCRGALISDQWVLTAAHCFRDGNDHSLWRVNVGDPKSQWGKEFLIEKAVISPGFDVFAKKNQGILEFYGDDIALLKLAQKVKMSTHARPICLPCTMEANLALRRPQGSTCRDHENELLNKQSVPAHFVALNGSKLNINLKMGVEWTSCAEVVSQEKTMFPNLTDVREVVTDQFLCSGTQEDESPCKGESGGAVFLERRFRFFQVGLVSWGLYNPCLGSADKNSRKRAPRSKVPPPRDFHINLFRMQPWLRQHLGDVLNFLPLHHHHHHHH

human C2 W420A = molecular target: T2, human C2 W420A (human, UniProt P06681 21-752)
T2 sequence: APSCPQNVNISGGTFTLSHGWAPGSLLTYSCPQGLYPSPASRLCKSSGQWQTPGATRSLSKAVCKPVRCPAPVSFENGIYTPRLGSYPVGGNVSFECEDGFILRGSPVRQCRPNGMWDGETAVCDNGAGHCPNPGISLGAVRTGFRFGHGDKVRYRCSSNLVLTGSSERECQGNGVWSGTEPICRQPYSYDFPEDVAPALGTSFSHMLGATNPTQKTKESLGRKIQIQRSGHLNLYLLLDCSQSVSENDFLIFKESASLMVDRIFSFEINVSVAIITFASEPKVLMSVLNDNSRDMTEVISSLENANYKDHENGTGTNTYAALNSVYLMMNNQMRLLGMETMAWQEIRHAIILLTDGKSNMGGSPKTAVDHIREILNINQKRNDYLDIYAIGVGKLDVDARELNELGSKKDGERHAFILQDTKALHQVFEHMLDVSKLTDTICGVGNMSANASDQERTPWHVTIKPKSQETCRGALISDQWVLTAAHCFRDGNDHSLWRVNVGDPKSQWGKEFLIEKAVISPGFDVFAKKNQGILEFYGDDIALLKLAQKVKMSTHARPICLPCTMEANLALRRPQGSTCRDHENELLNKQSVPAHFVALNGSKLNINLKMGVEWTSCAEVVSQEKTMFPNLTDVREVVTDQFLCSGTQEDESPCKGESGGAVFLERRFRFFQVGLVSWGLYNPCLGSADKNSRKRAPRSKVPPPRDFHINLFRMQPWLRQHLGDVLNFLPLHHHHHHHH

human C2 S473A = molecular target: T3, human C2 S473A (human, UniProt P06681 21-752)
T3 sequence: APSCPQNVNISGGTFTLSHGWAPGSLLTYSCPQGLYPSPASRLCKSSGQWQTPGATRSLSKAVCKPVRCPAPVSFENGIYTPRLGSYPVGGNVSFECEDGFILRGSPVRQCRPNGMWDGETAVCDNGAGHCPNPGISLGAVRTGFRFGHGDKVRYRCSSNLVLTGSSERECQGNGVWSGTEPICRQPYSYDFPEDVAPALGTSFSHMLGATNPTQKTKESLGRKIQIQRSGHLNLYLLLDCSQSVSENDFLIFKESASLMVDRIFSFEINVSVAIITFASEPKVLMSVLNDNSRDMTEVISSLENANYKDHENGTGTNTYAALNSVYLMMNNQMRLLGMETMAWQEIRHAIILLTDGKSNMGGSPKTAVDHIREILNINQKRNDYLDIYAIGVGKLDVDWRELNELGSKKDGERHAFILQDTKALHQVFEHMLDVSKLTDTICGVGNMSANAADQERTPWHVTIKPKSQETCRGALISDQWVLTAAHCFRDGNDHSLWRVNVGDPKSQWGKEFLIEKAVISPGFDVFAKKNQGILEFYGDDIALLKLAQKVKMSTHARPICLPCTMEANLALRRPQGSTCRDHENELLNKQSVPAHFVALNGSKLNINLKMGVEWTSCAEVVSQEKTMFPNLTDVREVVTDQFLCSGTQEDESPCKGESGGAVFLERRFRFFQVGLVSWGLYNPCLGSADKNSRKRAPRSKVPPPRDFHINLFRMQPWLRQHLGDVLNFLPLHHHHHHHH

human C2 A436S = molecular target: T4, human C2 A436S (human, UniProt P06681 21-752)
T4 sequence: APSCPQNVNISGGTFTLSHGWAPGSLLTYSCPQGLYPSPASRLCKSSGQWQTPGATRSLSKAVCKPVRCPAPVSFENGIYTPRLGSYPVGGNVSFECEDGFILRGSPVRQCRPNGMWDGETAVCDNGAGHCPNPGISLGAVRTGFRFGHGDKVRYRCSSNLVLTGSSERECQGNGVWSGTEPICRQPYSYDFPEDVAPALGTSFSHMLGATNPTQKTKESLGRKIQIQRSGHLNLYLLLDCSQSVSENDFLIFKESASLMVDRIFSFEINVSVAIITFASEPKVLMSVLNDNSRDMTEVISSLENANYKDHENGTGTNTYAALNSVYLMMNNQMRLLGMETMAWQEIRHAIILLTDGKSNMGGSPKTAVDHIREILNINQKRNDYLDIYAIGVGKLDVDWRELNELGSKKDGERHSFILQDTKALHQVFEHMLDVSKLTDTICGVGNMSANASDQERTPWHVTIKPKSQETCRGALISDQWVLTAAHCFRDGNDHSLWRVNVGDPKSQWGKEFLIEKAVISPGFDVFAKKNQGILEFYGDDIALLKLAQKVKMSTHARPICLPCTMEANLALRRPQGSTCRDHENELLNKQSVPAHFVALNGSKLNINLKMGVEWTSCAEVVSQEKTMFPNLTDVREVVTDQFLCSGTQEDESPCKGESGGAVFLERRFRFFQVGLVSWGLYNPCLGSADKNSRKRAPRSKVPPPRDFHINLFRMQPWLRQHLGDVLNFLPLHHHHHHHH

- Fold diff (human C2 I272A): 15 fold
- Fold diff (human C2 W420A): 1 fold
- Fold diff (human C2 S473A): 2 fold
- Fold diff (human C2 A436S): 1 fold
B1: RF16-214 (antibody, V domains shown)
VH: EVQLLESGGGLVQPGGSLRLSCAASGFTFSWYQMMWVRQAPGKGLEWVSRIYPSGGGTAYADSVKGRFTISRDNSKNTLYLQMNSLRAEDTAVYYCARDAGYGDNWGQGTLVTVSS
VL: QSALTQPPSVSVSPGQTASITCSGDKLGEKYASWYQQKAGQSPVMVIYQDRKRPSGIPERFSGSNSGNTATLTISGTQAMDEADYYCQAWDTRAVVFGGGTKLTVLG
